Measured values as given in US20250250357A1 (NANJING ZAIMING PHARMACEUTICAL, published 2025).
Positions count from the first letter of the chain named.

B1: Tab106 (YP218, hIgG1) (antibody, V domains shown)
VH: QQQLEESGGGLVKPEGSLTLTCKASGFDLGFYFYACWVRQAPGKGLEWIACIYTAGSGSTYYASWAKGRFTISKASSTTVTLQMTSLAAADTATYFCARSTANTRSTYYLNLWGPGTLVTVSS
VL: DVVMTQTPASVSEPVGGTVTIKCQASQRISSYLSWYQQKPGQRPKLLIFGASTLASGVPSRFKGSGSGTEYTLTISDLECADAATYYCQSYAYFDSNNWHAFGGGTEVVVRT
notes: Control antibody; YP218 VH and VL recombined into human IgG1 CH and CL expression vectors; also called YP218 human IgG1 antibody
B2: S009-F7.48.1 (antibody, human IgG1, kappa, V domains shown)
VH: QVQLQQPGTELVKPGASVKLSCKASGYTFTSYWMHWVKQRPGQGLEWIGNINPSNGGTNNNENFKSKATLTVDTSSSTAYMQLSSLTSEDSAVYYCVRNGYHGYWYFDVWGTGTTVTVSS
VL: DIVMTQSQKFMSTSVGDRVSVTCKASQNVGTNVAWYQQQPGQSPKALIYSASYRYSGVPDRFTGSVSGTDFTLTISNVQSEDLAEYFCQQYNSYPLTFGGGTKLEIKR
notes: Human-murine chimeric antibody, human IgG1 heavy and kappa light constant regions
B3: S009-F7.67.12 (antibody, human IgG1, kappa, V domains shown)
VH: QVQLQQPGTELVKPGASVRLSCRASGYSFSSYWMHWVKQRPGQGLEWLGNINPTTGDINYNEKFRNRATLAVDKSSTTAYLQLTSLTSEDSAVYFCVRHDGFLWGQGTTLTVSS
VL: DIQMTQSPASLSASVGETVTITCRASENIYSYLAWYQQKQGKSPQLLVYYAKTLAEGVSSRFSGSGSGTQFSLKINSLQPEDFGTYYCQHQFGTPRTFGGGTKLEIRR
notes: as for B2
B4: S009-F7.53.2 (antibody, human IgG1, kappa, V domains shown)
VH: EVQLQQSGPELVKPGASVKIPCKTSGYTFTDYNMDWVKQSHGKSLEWIGDINPNTDGAIYNQKFQNKATLTVDKSSSTAYMELRSLTSEDTAVYYCTRRKLGRKFFDYWGQGTTLTVSS
VL: QIVLTQSPAIMSASPGEQVTMTCSASSSVGYMNWYQQKPGSSPRLLIYDTSNLASGVPVHFSGSGSGTSYSLTISRMEAAFAATYYCQQWYVYPYTFGGGTKLEIKR
notes: as for B2
B5: S009-F7.66.12 (antibody, human IgG1, kappa, V domains shown)
VH: QIPLQQSGPELVKPGASVRISCKASDYAFSSSWMNWVKQRPEKGLEWIGRIFVESGNTHYNDKFNGKATLTADKSSRTAYIQLSSLTSEDSAVYFCTRENIFYHGHSSWFAYWGQGTLVTVSA
VL: DIVLTQSPASLVVSLGQRATISCRAGESVDDFGISYVHWYQQKPGQPPKLLIYRAANLESGIPARFSGSGSRTDFTLTINPVETDDVAIYYCQQNNKDPFTFGSGTKLEIKR
notes: as for B2
B6: S009-F7.44.20 (antibody, human IgG1, kappa, V domains shown)
VH: EVQLQQSGPELVKPGASVKIPCKASGYTFTDYNMDWVKQSHGKSLEWIGDINPSTGGTIYNQKFNGKATLTEDKSASTVYMEFRSLTSDDTAVYYCARRRIGTGYFDVWGTGTTVTVSS
VL: QIVLTQSPALMSASPGEKVTLTCSASSSVISSYLSWYQQKPGSSPKLLIYRTSNLASGVPARFSGSGSGTSYSLTISSMEAEDAASYFCHQWSSFPYTFGGGTKLEIKR
notes: as for B2
B7: S009-F7.61.21 (antibody, human IgG1, kappa, V domains shown)
VH: DVQLQQSGPELVEPGASVRIPCKAAGHTFTDYNVDWVKQSHGQSLEWIGDVNPNTDGAIYNQKFEGKATLTVDTSSSTAYMELRSLTSEDTAVYFCARRRLGQGGFDSWGQGTTLTVSS
VL: B6 VL with I2V, L10I, S24G, V29L, S32K, S35Y, L48W, R51S, F95Y, L105V
notes: as for B2
B8: S009-F7.65.13 (antibody, human IgG1, kappa, V domains shown)
VH: EVQLQQSGPELVKPGTSVKILCKASGDTFTAYNMDWVKQRHGQSLEWIGDINPNTDSTIYNQKFEGKAILTVDKSSSTAYMELRSLTSEDTAVYYCARRKLGRGYFDYWGQGTTLTVSS
VL: QIVLTQSPAIMSASPGEKVTMTCSVNLSVRYIYWYQQKPGSSPRLLIHDTSNLASGVPVRFSGSGSGTSYSLTISRMEAEDAATYYCQQWSSFPYTFGGGTKLEIKR
notes: as for B2

These binders were tested against T1, human MSLN-R2-his protein (human, UniProt Q13421 391-486) (assay: ELISA on coated antigen, antibody 0.2 nM).
T1 construct: it is put last here; also called human MSLN-R2 protein; hMSLN-R2-his; not shown: His tag
T1 sequence (Q13421 other isoform, or with tags, fused parts or gaps): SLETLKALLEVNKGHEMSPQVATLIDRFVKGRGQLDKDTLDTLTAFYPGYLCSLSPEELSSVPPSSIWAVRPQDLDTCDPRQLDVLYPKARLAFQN

Binder | OD450 [OD]
B1 | 0.47
B2 | 0.05
B3 | 0.06
B4 | 0.05
B5 | 0.05
B6 | 0.05
B7 | 0.05
B8 | 0.05

These binders were tested against T2, human MSLN-R3-his protein (human, UniProt Q13421 487-598) (assay: ELISA on coated antigen, antibody 0.0002 nM).
T2 construct: it is put last here; also called human MSLN-R3 protein; hMSLN-R3-his; not shown: His tag
T2 sequence (Q13421 495-606): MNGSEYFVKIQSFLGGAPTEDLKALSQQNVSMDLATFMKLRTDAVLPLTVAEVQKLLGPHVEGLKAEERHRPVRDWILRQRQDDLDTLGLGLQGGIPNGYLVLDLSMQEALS

Binder | OD450 [OD]
B1 | 0.35
B2 | 0.05
B3 | 0.11
B4 | 0.05
B5 | 0.14
B6 | 0.1
B7 | 0.05
B8 | 0.07

Each binder was assayed against T1, human MSLN-R2-his protein (assay: ELISA on coated antigen, antibody 0.002 nM).
Procedure: (§1) The plate was sealed with a plastic film and incubated at 4° C. overnight. The next day, the plate was washed twice with PBST, and a blocking buffer [PBS+2% (w/w) BSA] was added for blocking at room temperature for 2 h. The blocking buffer was discarded, and a chimeric antibody or negative control antibody serially diluted from 100 nM was added at 50 μL/well. After incubation at 37° C. for 2 h, the plate was washed 3 times with PBST. […] After incubation at 37° C. for 2 h, the plate was washed 5 times with PBST. A TMB substrate was added at 50 μL/well for incubation at room temperature for 5-10 min, and then a stop solution (1.0 N HCl) was added at 50 μL/well.

Binder | OD450 [OD]
B1 | 0.11
B2 | 0.05
B3 | 0.05
B4 | 0.05
B5 | 0.05
B6 | 0.05
B7 | 0.05
B8 | 0.05

The binders below were run against T2, human MSLN-R3-his protein (assay: ELISA on coated antigen, antibody 0.2 nM).
Procedure: as §1

Binder | OD450 [OD]
B1 | 1.9
B2 | 0.94
B3 | 1.93
B4 | 0.5
B5 | 1.95
B6 | 2.2
B7 | 0.8
B8 | 1.3

Each binder was assayed against T1, human MSLN-R2-his protein (assay: ELISA on coated antigen, antibody 0.02 nM).
Procedure: as §1

Binder | OD450 [OD]
B1 | 0.17
B2 | 0.05
B3 | 0.05
B4 | 0.05
B5 | 0.05
B6 | 0.05
B7 | 0.05
B8 | 0.05

The binders below were run against T2, human MSLN-R3-his protein (assay: ELISA on coated antigen, antibody 20 nM).
Procedure: as §1

Binder | OD450 [OD]
B1 | 2.26
B2 | 2.43
B3 | 2.49
B4 | 2.42
B5 | 2.37
B6 | 2.48
B7 | 2.39
B8 | 2.34

The binders below were run against T2, human MSLN-R3-his protein (assay: ELISA on coated antigen, antibody 0.02 nM).
Procedure: as §1

Binder | OD450 [OD]
B1 | 0.97
B2 | 0.26
B3 | 0.69
B4 | 0.14
B5 | 0.04
B6 | 0.9
B7 | 0.17
B8 | 0.35

The binders below were run against T2, human MSLN-R3-his protein (assay: ELISA on coated antigen, antibody 0.002 nM).

Binder | OD450 [OD]
B1 | 0.65
B2 | 0.08
B3 | 0.24
B4 | 0.06
B5 | 0.23
B6 | 0.27
B7 | 0.06
B8 | 0.14

The binders below were run against T1, human MSLN-R2-his protein (assay: ELISA on coated antigen, antibody 20 nM).
Procedure: as §1

Binder | OD450 [OD]
B1 | 2.42
B2 | 0.07
B3 | 0.07
B4 | 0.06
B5 | 0.09
B6 | 0.06
B7 | 0.06
B8 | 0.05

What follows are binders tested against T1, human MSLN-R2-his protein (assay: ELISA on coated antigen, antibody 200 nM).
Procedure: as §1

Binder | OD450 [OD]
B1 | 2.54
B2 | 0.09
B3 | 0.1
B4 | 0.08
B5 | 0.28
B6 | 0.1
B7 | 0.09
B8 | 0.1

The binders below were run against T2, human MSLN-R3-his protein (assay: ELISA on coated antigen, antibody 2 nM).
Procedure: as §1

Binder | OD450 [OD]
B1 | 2.33
B2 | 2.05
B3 | 2.45
B4 | 1.71
B5 | 2.25
B6 | 2.46
B7 | 2.17
B8 | 2.39

The binders below were run against T1, human MSLN-R2-his protein (assay: ELISA on coated antigen, no antibody (blank, column 'none')).
Procedure: as §1

Binder | OD450 [OD]
B1 | 0.07
B2 | 0.06
B3 | 0.06
B4 | 0.07
B5 | 0.07
B6 | 0.06
B7 | 0.07
B8 | 0.07

Each binder was assayed against T2, human MSLN-R3-his protein in the same assay as above.
Procedure: as §1

Binder | OD450 [OD]
B1 | 0.06
B2 | 0.06
B3 | 0.07
B4 | 0.06
B5 | 0.06
B6 | 0.06
B7 | 0.06
B8 | 0.07

Each binder was assayed against T2, human MSLN-R3-his protein (assay: ELISA on coated antigen, antibody 200 nM).
Procedure: as §1

Binder | OD450 [OD]
B1 | 2.12
B2 | 2.69
B3 | 2.75
B4 | 2.69
B5 | 2.6
B6 | 2.91
B7 | 2.61
B8 | 2.63

These binders were tested against T1, human MSLN-R2-his protein (assay: ELISA on coated antigen, antibody 0.0002 nM).
Procedure: as §1

Binder | OD450 [OD]
B1 | 0.12
B2 | 0.05
B3 | 0.05
B4 | 0.05
B5 | 0.27
B6 | 0.05
B7 | 0.05
B8 | 0.05

Each binder was assayed against T1, human MSLN-R2-his protein (assay: ELISA on coated antigen, antibody 2 nM).
Procedure: as §1

Binder | OD450 [OD]
B1 | 1.42
B2 | 0.05
B3 | 0.06
B4 | 0.05
B5 | 0.06
B6 | 0.05
B7 | 0.05
B8 | 0.05
